The values below come from the DeepSol protein solubility set.

The nature of the data set: soluble on expression in E. coli; label from the status in PepcDB or PDB records.
In the case of “MGSDKIHHHHHHMPEIHQSIAQHYHERTKYDPETIASKSQRLDWAKQPVPFKEYKIGSAIDLKPYLQETPEVFVNDTNGQWWQRLSRLLFRSYGLTARMPSMGNTVYLRAAPSAGGLYPAEVYVVSRGTPLLSPGLYNYQCRTHSLIHYWESDVWQSLQEACFWHPALESTQLAIIVTAVFYRSAWRYEDRAYRRICLDTGHLLGNIELSAAITDYRPHLIGGFIDEAVNDLLYIDPLQEGAIAVLPLADLLDIQQNISPGCTALPSATETNYPQVPDGELLKYFHHHTQISASITGKLNLPTVIQEKSLEDKYNFPFCLKISTVSAPIYWGENLSDLEITMHKRRSTRAYNGEELTFDELKALLDFTYQPQNYIDQSLDNSPDYFDLNLIETFIAVCGVQGLEAGCYYYAPKAQELRQIRFKNFRRELHFLCLGQELGRDAAAVIFHTSDLKSAIAQYGDRVYRYLHMDAGHLGQRLNLAAIQLNLGVSGIGGFFDDQVNEVLGIPNDEAVIYITTLGRPR”, the “soluble on expression in E. coli” value is given as “not soluble”. As to “SWKFSRYVRTQMQELEPWQLKQALKTHQGVLQATYEGLVAINSEGSLYLINDSARAMLNYHQELGNVFTDGIDNPESFSLKGDDYINGLIRVNGKNLVMNRVTLRTSTGEPYGAVFSLRDQNEMHVLSEKISQVTQYMENMRVARHEYQNKLSTISGLLQMGAYDKALSVCLSQAKASQSQLDSLHALNSRPALSALILAKASKANELGVALSIDCQSDLSALSRRLSEEQLCGLIGNLAQNALEAVKGQENGHVHIGISESACEYTIQVSNNGPLLESEFDVLCELGFTTKQNKADHGVGMYLVRSIVEQGNGHMELDSDEQETAFTIYFPKELG”, the “soluble on expression in E. coli” value is on record as “not soluble”.

In the case of “MSLRWLSLNTATVRKQGDLVAIIDACAKHGIRAIDPWRDQVASVGLDRAARAVRDAGLELSGYCRGGMFTSDASRRGEVRDDNRRCVDEAKALGAPCIVLVVGGLPQYSRPGSEPSKDIAAARGQVEEALADMLDYARQAGLPLAIEPLHPAYAADRACVNTTKQALDICDRLDPGRTGMLGVALDVYHIWWDPELMSQIARAGRDRLLAFHVCDWLVPTRDILNDRGMMGDGVIDIKSVRKAVEAQGFAGYSEIEIFSNDWWAKPMDEVLRTCITRHRTVVEGHHHHHH”, the “soluble on expression in E. coli” value is on record as “not soluble”.

Turning to “AIARPSSLRQYLDSVPLPPCQEQQPKASAELDHKACYLCHSLLMLAGVVVSCQDITPDQWGELQLLCMQLDRHISTQIRESPQAMHRTMLKDLATQTYIRWQELLTHCQPQAQYFSPWKDI”, the “soluble on expression in E. coli” value is “soluble”.

Take “MGSDKIHHHHHHVPVSQLPSQPTDNNSSAATDVTPVVALKELVARLHREQNKIQDLLSSLGFALRSFNNLNQFLELIPLMATRVTDADGSALFLYKPNGQVRLEQLHWQDSGQRKNIRKALEIASSQITLLPNAAPLANATGILDDQMHRYLGPDVQIFGTAILVKHTERGWLYVLSRDPEYSWTETRQKLVRLVADQTAVAIENDELAVELRKKERLDQELEIGAEIQRRLLPRQCPTIPGAVLAARCKPANRVGGDYYDFIATNQNKIRSKTKGDTETGRWGLVIGDVMGKGVPAGLIMTMMRGMLRGEVLHGNSPAKILQNLNRVMYADLENSHRFVTLFYSEYNPHSRILSYSNAAHNPPLWWHAATKTVSRLDTLGMLIGLDANSQYEDAQVQLEPGDTIIYYTDGLTDAAAAGGDRFDEDNFVAGFNTACKYCNGPEEIVDYLFDQVQQFIGDDKQNTDDMTLVVLQIL”: the “soluble on expression in E. coli” value is “not soluble”. Take “GPGSFIDPPSDQGMSDAFYQLLYFGAVDDGLQLTDFGRRMAVLPVDVCLARMLLMAPKHGCGADAAVVAAMLEAGNAFSRPPSRLAEAREAHARFDNADGDHVALFRVFHAYFKNQQNGKRFCYENYLRHQTLQQAVQVYKQLRRLMSQLMIPVQSTYIPEREYVDTVALRKAVLEGFFTQVAFLTPVAPITH”: the “soluble on expression in E. coli” value is listed as “not soluble”.

With “MGSDKIHHHHHHMATELPSLKGLQAFEAAARYRSVTLASNELNVTPGAVSLQIRELEARLGVQLFFRKPRSIQLTREGERYYGALRTAFRMMREATAELTARSEITVLTLSCTPTFAVQWLMPRLPSFQQQHPHVDVRISVTNRLVDFSRDDVDLAVRHGFGRYEGLESIRFIDDSTLPVCAPQLLEKYGPLREAGDLKSVPLLHDENRNEWRRWLEAAGASEVDASGGTVFIDSNGALDAAKAGHGIALTRRSLVSRELVEGALIAPFGTDMASTLAYFLVYPRRMLDNPDLVTLIDWMLSQAGSTEAGSL”, the “soluble on expression in E. coli” value is “not soluble”. For “SEKLINRVGPNGESRAQAVTSDQEKRLLHQLREITRVMKEGKFIDTSPEKEAEEAPYMEDWEGYPEETYPIYDLSDGIKRRQETILVDYPDLKEPSAEEIAEQMGEIEEEGSERLSWDHLPTDPGAQKDNSVAPCDPKPESCSCCVHEEEDPAVLAENAGFSADGYSEQEEATKENLPQDFTNEGLGVSTDNAHVGGMLRKRNPQGFE” the value was “soluble”; for “MGSDKIHHHHHHMDKFLYIAMSGAKQGMNALAVSANNLANANTDGFKADMVQARSMQAFGEGLPTRVFSMMESPGSNFNGGPIKTTGRDLDIAVKGDGWLAVQAADGSEGYTRAGSLKIDSTGMLLNSSNRPVMGASGPIVLPIPVEKIEISANGIISVRPQGATAEVIEEVARIKLVNPGNENLMRGEDGLFRLIAGGNAPNDPGVQVESGAVEGSNVNSVHEMVAMIDIQRQYEMQVKMMKNAEEIDRASTSLMRIS”, “not soluble”; for “MAHHHHHHMRCVRVVCQRFVEFVTFCSGVVPPLALLGYPLPGSGCQKTHPTALSLKGARVGDADAGNADTWLSRAIPRNWAAFCVNLQARGVGLVTVGLSYGSPSVVVRQVLGWGCGGNELRLYGFCRSSVLCRVWGVSVPLSAFTPCSVDDSIFSLLRYRIFRACAS”, “not soluble”. For “MVIGVPKEIKTLENRVALTPGGVESLVRRGHTVLVERGAGEGSGLSDAEYARAGAELVGREEAWGAEMVVKVKEPLPEEYGFLREGLILFTYLHLAADRGLTEAMLRSGVTGIAYETVQLPDGTLPLLVPMSEVAGRMAPQVGAQFLEKPKGGRGVLLGGVPGVAPASVVILGGGTVGTNAAKIALGMGAQVTILDVNHKRLQYLDDVFGGRVITLTATEANIKKSVQHADLLIGAVLVPGAKAPKLVTRDMLSLMKEGAVIVDVAVDQGGCVETIRPTTHAEPTYVVDGVVHYGVANMPGAVPRTSTFALTNQTLPYVLKLAEKGLDALLEDAALLKGLNTHKGRLTHPGVAEAFGLPYTPPEEALRG”, the “soluble on expression in E. coli” value is listed as “soluble”.

Regarding “MSSQIRQNYSTEVEAAVNRLVNLYLRASYTYLSLGFYFDRDDVALEGVCHFFRELAEEKREGAERLLKMQNQRGGRALFQDLQKPSQDEWGTTPDAMKAAIVLEKSLNQALLDLHALGSAQADPHLCDFLESHFLDEEVKLIKKMGDHLTNIQRLVGSQAGLGEYLFERLTLKHD”, the “soluble on expression in E. coli” value was “soluble”. With “MGSNGGGGGGGKQVLWEFHATGPRNISNPSWRDLIRSSWTDPNYRRIAVSCFVQAAYLLELDRQEKRNGESALAPNWWKPFKYKLVRPLIDSRDGSIYGVLLEWDQLAALSDLIVLRPNGAPKVVLAIRGTVLKQSTVVRDLEDDFRFFTMESLRGSVRFTGALEALKSAIDKRGSNNVCIAGHSLGAGFALQVGKTLAQDGIFVECHLFNPPSVSLGMGLRKLQEKAGKVLKRYVSGSSSNATELSHPTEDGGAASEIGEEKLIKEVKRWVPNLYINSCDYICCFYADRSGVATVTAEKHDGHSGTHSKLFVIAKGPKKFLEAHGLQQWWSDDYELQLAVHDSKLMYRHLKSLYVNES”, the “soluble on expression in E. coli” value is “soluble”. For “DQQLVDQLSQLKLNVKMLDNRAGENGVDCAALGADWASCNRVLFTLSNDGQAIDGKDWVIYFHSPRQTLRVDNDQFKIAHLTGDLYKLEPTAKFSGFPAGKAVEIPVVAEYWQLFRNDFLPRWYATSGDAKPKMLANTDTENLDQFVAPFTGDQWKRTKDDKNILMTPASRFVSNADLQTLPAGALRGKIVPTPMQVKVHAQDADLRKGVALDLSTLVKPAADVVSQRFALLGVPVQTNGYPIKTDIQPGKFKGAMAVSGAYELKIGKKEAQVIGFDQAGVFYGLQSILSLVPSDGSGKIATLDASDAPRFPYRGIFLDVARNFHKKDAVLRLLDQMAAYKLNKFHFHLSDDEGWRIEIPGLPELTEVGGQRCHDLSETTCLLPQYGQGPDVYGGFFSRQDYIDIIKYAQARQIEVIPEIDMPAHARAAVVSMEARYKKLHAAGKEQEANEFRLVDQTDTSNTTSVQFFNRQSYLNPCLDSSQRFVDKVIGEIAQMHKEAGQPIKTWHFGGDDAKNIRLGAGYTDKAKPEPGKGIIDQSNEDKPWAKSQVCQTMIKEGKVADMEHLPSYFGQEVSKLVKAHGIDRMQAWQDGLKDAESSKAFATSRVGVNFWDTLYWGGFDSVNDWANKGYEVVVSNPDYVYMDFPYEVNPDERGYYWGTRFSDERKVFSFAPDNMPQNAETSVDRDGNHFNAKSDKPWPGAYGLSAQLWSETQRTDPQMEYMIFPRALSVAERSWHRAGWEQDYRAGREYKGGETHFVDTQALEKDWLRFANILGQRELAKLDKGGVAYRLPVPGARVAGGKLEANIALPGLGIEYSTDGGKQWQRYDAKAKPAVSGEVQVRSVSPDGKRYSRAEKV” the value was “soluble”; for “MHILDIWHRRNSRSYIAHLRSLGIRIGDGCIFRDPLTTRIDVSRPALVSIGSNVDMNTYFQILTHDWASFVFRNKYHDFVNSSGRVEIGSNIYIGTNVIVLRGVTIGDNCVIGAGSVVTHDIPANSVAVGAPCRVVCSLEHHHHHH”, “not soluble”. Regarding “MMINTQEDKLVSAHDAEEFHRFFVGHDSDLQQEVTTLLTREAHLLDIQAYKAWLEHFVAPEIKYQVISRELRSTSERRYQLNDAVNLYNENYQQLKVRVEHQMDPQNWANNPKIRFTRFVTNVTAAKDKSAPEILHVRSNLILHRARRENQVDVFYATREDKWKRIEGGGIKLVERFVDYPERIPQTHNLLVFL”, the “soluble on expression in E. coli” value is reported as “soluble”.

Take “MIVLIDNYDSFTYNLYQLLGEYEEEIVVVRNDQITIEQLEEMNPKGIVLSPGPGKPEEAGICIEVIRHFYKNVPILGICLGHQAIISAFGGEIVRAERIKHGKTSRAKHNGTSIFSYVTQPLTAMRYHSLVAAQTSLPQCFDILATAMDDGEIMAVRHNYYPLFGLQFHPESIATEEGGKLIRAFLGEVKEEERV”: the “soluble on expression in E. coli” value is reported as “not soluble”. As to “MRIVAPVMPRHFDEAQAIDISKYEDVNLIEWRADFLPKDEIVAVAPAIFEKFAGKEIIFTLRTVQEGGNITLSSQEYVDIIKEINAIYNPDYIDFEYFTHKSVFQEMLDFPNLILSYHNFEETPENLMEAFSEMTKLAPRVVKIAVMPQSEQDVLDLMNYTRGFKTLNPEQEFATISMGKLGRLSRFAGDVIGSSWTYVSLDHVSGPGQVTLNDMKRIIEVLEMDISN”, the “soluble on expression in E. coli” value is on record as “soluble”.
